Test results from patent EP3024460B1 (Immunomedics, Inc., dated 2020).
Blank lines part the entries; values can stand above or below the molecule they belong to.

Key:
CD74 [1] = molecular target: T1, CD74 (human, UniProt P04233 1-296); test: cell-based or functional assay
T1 construct: whole, on cells; Endogenous antigen of human tumor cell lines; measured on the surface or, after permeabilization, surface and cytoplasmic; also called invariant chain; Ii
T1 sequence (looked up): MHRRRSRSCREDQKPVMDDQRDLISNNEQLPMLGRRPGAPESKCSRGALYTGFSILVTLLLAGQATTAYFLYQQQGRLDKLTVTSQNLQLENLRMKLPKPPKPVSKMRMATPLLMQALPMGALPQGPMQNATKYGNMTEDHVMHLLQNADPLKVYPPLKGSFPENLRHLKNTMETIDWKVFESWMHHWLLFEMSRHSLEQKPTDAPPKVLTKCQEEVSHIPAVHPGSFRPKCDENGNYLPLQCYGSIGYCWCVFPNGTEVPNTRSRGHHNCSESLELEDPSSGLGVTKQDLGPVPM

CD74 [2] = molecular target: T1, CD74; test: cell binding to antigen-positive cells (cell line not stated)
CD22 (human) = CD22 (human) (UniProt P20273); test: cell-based or functional assay
[3] = molecular target: Human trophoblast cell-surface antigen (TROP-2) (human) (UniProt P09758); test: cell binding assay on TROP-2-expressing cells
Human trophoblast cell-surface antigen (TROP-2) (human), sequence (P09758 27-323): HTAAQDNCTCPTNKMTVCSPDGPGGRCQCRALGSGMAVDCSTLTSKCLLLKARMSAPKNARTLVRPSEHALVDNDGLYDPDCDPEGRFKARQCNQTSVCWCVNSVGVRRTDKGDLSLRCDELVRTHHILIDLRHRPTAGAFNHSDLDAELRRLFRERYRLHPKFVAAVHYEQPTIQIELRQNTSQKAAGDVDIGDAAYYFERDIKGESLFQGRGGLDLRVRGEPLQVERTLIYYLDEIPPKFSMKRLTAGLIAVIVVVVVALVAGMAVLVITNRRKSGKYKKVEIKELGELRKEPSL

[4] = molecular target: Human trophoblast cell-surface antigen (TROP-2) (human) (UniProt P09758); test: cell-based or functional assay
[5] = molecular target: Human trophoblast cell-surface antigen (TROP-2) (human) (UniProt P09758); test: flow cytometry, surface of Capan-1 cells
[6] = molecular target: Human trophoblast cell-surface antigen (TROP-2) (human) (UniProt P09758); test: flow cytometry, surface of NCI-N87 cells
[7] = molecular target: Human trophoblast cell-surface antigen (TROP-2) (human) (UniProt P09758); test: FACS on BxPC-3 cells
[8] = molecular target: Human trophoblast cell-surface antigen (TROP-2) (human) (UniProt P09758); test: FACS on PC-3 cells
[9] = molecular target: Human trophoblast cell-surface antigen (TROP-2) (human) (UniProt P09758); test: FACS on Calu-3 cells
[10] = molecular target: Human trophoblast cell-surface antigen (TROP-2) (human) (UniProt P09758); test: FACS on Calu-3 cells; background 4.7
[11] = molecular target: Human trophoblast cell-surface antigen (TROP-2) (human) (UniProt P09758); test: FACS on SK-MES-1 cells; background 3.5
[12] = molecular target: Human trophoblast cell-surface antigen (TROP-2) (human) (UniProt P09758); test: FACS on SK-MES-1 cells
[13] = molecular target: Human trophoblast cell-surface antigen (TROP-2) (human) (UniProt P09758); test: FACS on COLO 205 cells
[14] = molecular target: Human trophoblast cell-surface antigen (TROP-2) (human) (UniProt P09758); test: FACS on COLO 205 cells; background 4.5
[15] = molecular target: Human trophoblast cell-surface antigen (TROP-2) (human) (UniProt P09758); test: FACS on PC-3 cells; background 5.5
[16] = molecular target: Human trophoblast cell-surface antigen (TROP-2) (human) (UniProt P09758); test: FACS on Capan-1 cells
[17] = molecular target: Human trophoblast cell-surface antigen (TROP-2) (human) (UniProt P09758); test: FACS on BxPC-3 cells; background 3.1
[18] = molecular target: Human trophoblast cell-surface antigen (TROP-2) (human) (UniProt P09758); test: FACS on Capan-1 cells; background 5.0
CD74 [19] = molecular target: T1, CD74; test: flow cytometry, surface and cytoplasmic CD74 in permeabilized HuH-7 cells
CD74 [20] = molecular target: T1, CD74; test: flow cytometry, surface and cytoplasmic CD74 in permeabilized NCI-N87 cells
CD74 [21] = molecular target: T1, CD74; test: flow cytometry, surface CD74 on A-375 cells
CD74 [22] = molecular target: T1, CD74; test: flow cytometry, surface CD74 on Hep-G2 cells
CD74 [23] = molecular target: T1, CD74; test: flow cytometry, surface CD74 on Capan-1 cells
CD74 [24] = molecular target: T1, CD74; test: flow cytometry, surface and cytoplasmic CD74 in permeabilized Hs746T cells
CD74 [25] = molecular target: T1, CD74; test: flow cytometry, surface CD74 on Raji cells
CD74 [26] = molecular target: T1, CD74; test: flow cytometry, surface and cytoplasmic CD74 in permeabilized A-375 cells
CD74 [27] = molecular target: T1, CD74; test: flow cytometry, surface CD74 on NCI-N87 cells
CD74 [28] = molecular target: T1, CD74; test: flow cytometry, surface and cytoplasmic CD74 in permeabilized Hep-G2 cells
CD74 [29] = molecular target: T1, CD74; test: flow cytometry, surface and cytoplasmic CD74 in permeabilized Raji cells
CD74 [30] = molecular target: T1, CD74; test: flow cytometry, surface CD74 on HuH-7 cells
CD74 [31] = molecular target: T1, CD74; test: flow cytometry, surface and cytoplasmic CD74 in permeabilized Capan-1 cells
CD74 [32] = molecular target: T1, CD74; test: flow cytometry, surface CD74 on Hs746T cells

Molecule: Emab-CL2E-SN-38 (antibody)
- in vitro cytotoxicity (MTS assay), potency against the nonbinding control conjugate (CD22 (human)): 2 fold

B2: Humanized RS7 IgG (antibody, INN chains, looked up, V domains shown, part only)
VH: QVQLQQSGSELKKPGASVKVSCKASGYTFTNYGMNWVKQAPGQGLKWMGWINTYTGEPTYTDDFKGRFAFSLDTSVSTAYLQISSLKADDTAVYFCARGGFGSSYWYFDVWGQGSLVTVSS
VL: DIQLTQSPSSLSASVGDRVSITCKASQDVSIAVAWYQQKPGKAPKLLIYSASYRYTGVPDRFSGSGSGTDFTLTISSLQPEDFAVYYCQQHYITPLTFGAGTKVEIK
modifications: IgG1
- MFI [5]: 237
- MFI [6]: 795
- Percent positive [7]: 98.3%
- Percent positive [8]: 73.6%
- Percent positive [9]: 99.6%
- Median fluorescence [10]: 282
- Median fluorescence [11]: 44
- Percent positive [12]: 91.2%
- Percent positive [13]: 99.5%
- Median fluorescence [14]: 142
- Median fluorescence [15]: 46.2
- Percent positive [16]: 94.2%
- Median fluorescence [17]: 26.4
- Median fluorescence [18]: 100

B4: Milatuzumab (antibody, V domains shown)
VH: QVQLQQSGSELKKPGASVKVSCKASGYTFTNYGVNWIKQAPGQGLQWMGWINPNTGEPTFDDDFKGRFAFSLDTSVSTAYLQISSLKADDTAVYFCSRSRGKNEAWFAYWGQGTLVTVSS
VL: DIQLTQSPLSLPVTLGQPASISCRSSQSLVHRNGNTYLHWFQQRPGQSPRLLIYTVSNRFSGVPDRFSGSGSGTDFTLKISRVEAEDVGVYFCSQSSHVPPTFGAGTRLEIK
- MFI Ratio hLL1:bkgd (CD74 [19]): 28.5
- MFI Ratio hLL1:bkgd (CD74 [20]): 36.7
- MFI Ratio hLL1:bkgd (CD74 [21]): 5.3
- MFI Ratio hLL1:bkgd (CD74 [22]): 1.5
- MFI Ratio hLL1:bkgd (CD74 [23]): 1.8
- MFI Ratio hLL1:bkgd (CD74 [24]): 28.8
- MFI Ratio hLL1:bkgd (CD74 [25]): 19.6
- MFI Ratio hLL1:bkgd (CD74 [26]): 30.8
- MFI Ratio hLL1:bkgd (CD74 [27]): 1.3
- MFI Ratio hLL1:bkgd (CD74 [28]): 31.2
- MFI Ratio hLL1:bkgd (CD74 [29]): 28.6
- MFI Ratio hLL1:bkgd (CD74 [30]): 1.6
- MFI Ratio hLL1:bkgd (CD74 [31]): 49.6
- MFI Ratio hLL1:bkgd (CD74 [32]): 2.1
- Kd (CD74 [2]): 770 pM

Further lines, with some results ahead:

- Kd (CD74 [2]): 800 pM
Molecule: milatuzumab-CL2E-SN-38 (antibody)
- in vitro cytotoxicity (MTS assay), potency against free SN-38 in 4 solid tumor cell lines (fold lower potency than free SN-38) (CD74 [1]): 7 to 16

- Kd (CD74 [2]): 590 pM
Molecule: milatuzumab-CL2A-SN-38 (antibody)

- Kd [3]: 1200 pM
B1: hRS7-CL2A-SN-38 (antibody, INN chains, looked up, V domains shown, part only)
VH: B2 VH
VL: B2 VL
modifications: SN-38 via CL2A linker (sacituzumab govitecan)
- ADC/free SN-38 ratio (IC50, in vitro cytotoxicity), Calu-3 [4]: 1.39
- ADC/free SN-38 ratio (IC50, in vitro cytotoxicity), SK-MES-1 [4]: 2.69

- Kd [3]: 1200 pM
B3: hRS7-CL2-SN-38 (antibody, INN chains, looked up, V domains shown, part only)
VH: B2 VH
VL: B2 VL
modifications: SN-38 via CL2 linker
